In this test the target is CXCR2 expressed on 300-19 pre-B cells. Kind of test: cell-based or functional assay.

“human wild-type GCP-2 (granulocyte chemotactic protein 2, CXCL6), recombinant (from UniProt P80162 38-114) (ligand)” registered a chemotaxis in Boyden chambers (Transwell), optimal concentration of 50 nM and a transendothelial migration in Boyden chambers (EA.hy 926 monolayer), optimal concentration of 50 nM.

For the origin of these results see patent publication US20260092091A1.
